Results published in the emibetuzumab library of Makowski et al. (2022).

B1: VH:VL chains; a variant is named by its letters at X, in order (parent)
chain 1: QVQLVQSGAEVKKPGASVKVSCKASGYTFTDYXMHWVRQAPGQGLEWMGXVNPNXXXTTYNQKFEGRVTMTTDTSTSTAYMELRSLRSDDTAVYYCARXNXLDXWGQGTTVTVSS
chain 2: DIQMTQSPSSLSASVGDRVTITCSVSSSVSSIYLHWYQQKPGKAPKLLIYSTSNLASGVPSRFSGSGSGTDFTLTISSLQPEDFATYYCQVYSGYPLTFGGGTKVEIK

Variants of: B1
Assay: yeast display scFab, FACS + sequencing
Method in brief: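 The non-specific binding call was based on sorted and sequenced yeast displaying a heavy-chain CDR mutant scFab library. Labelling used anti-Myc with biotinylated ovalbumin (260 μg/mL in PBSB, 3 h, room temperature) or soluble membrane proteins (130 μg/mL, 20 min on ice), and FACS collected the top 25% and bottom 10% of binders in two replicates. Positive meant present in ≥3 of 4 pooled positive samples and in no negatives, and negative meant the converse.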

Row | Variant | non-specific binding call
1 | VRAGADVV | no binding
2 | VRAGADVY | no binding
3 | VRAGADWY | no binding
4 | VRAGAFSV | no binding
5 | YRAGASAD | binds
6 | YRAGASAV | binds
7 | YRAGASGA | binds
8 | YRAGASGD | binds
9 | YRAGASLA | binds
10 | DRAGDAAA | no binding
11 | YRAGDAAD | no binding
12 | DRAGDAAV | no binding
13 | DRAGDAGA | no binding
14 | VRAGDAGA | no binding
15 | DRAGDAGS | no binding
16 | DRAGDAGV | no binding
17 | VRAGDAGV | no binding
18 | FRAGDAGV | binds
19 | DRAGDAGY | no binding
20 | YRAGDALD | no binding
21 | DRAGDALD | no binding
22 | VRAGDALV | no binding
23 | DRAGDASD | no binding
24 | ARAGDAVA | no binding
25 | DRAGDAVD | no binding

Row | Variant | non-specific binding call
26 | DRAGDAVS | no binding
27 | YRAGDAVV | no binding
28 | ARAGDAVV | no binding
29 | ARAGDDAV | no binding
30 | VRAGDDAV | no binding
31 | DRAGDDAV | no binding
32 | DRAGDDGA | no binding
33 | VRAGDDGA | no binding
34 | DRAGDDGD | no binding
35 | DRAGDDGS | no binding
36 | VRAGDDGS | no binding
37 | VRAGDDGV | no binding
38 | DRAGDDGY | no binding
39 | DRAGDDLA | no binding
40 | DRAGDDLY | no binding
41 | DRAGDDSA | no binding
42 | VRAGDDSD | no binding
43 | VRAGDDVA | no binding
44 | YRAGDDVA | no binding
45 | VRAGDDVD | no binding
46 | VRAGDDVF | no binding
47 | DRAGDDVF | no binding
48 | DRAGDDVV | no binding
49 | DRAGDDVY | no binding
50 | YRAGDDVY | no binding

Row | Variant | non-specific binding call
51 | DRAGDDWA | no binding
52 | DRAGDDWV | no binding
53 | DRAGDDWY | no binding
54 | YRAGDFGV | no binding
55 | DRAGDSGA | no binding
56 | DRAGDSGF | no binding
57 | VRAGDSGY | no binding
58 | YRAGDSGY | no binding
59 | DRAGDSLD | no binding
60 | VRAGDSLD | no binding
61 | VRAGDSLS | no binding
62 | DRAGDSLV | no binding
63 | DRAGDSSA | no binding
64 | VRAGDSSA | no binding
65 | YRAGDSSA | no binding
66 | YRAGDSSS | no binding
67 | VRAGDSSV | no binding
68 | VRAGDSVA | no binding
69 | YRAGDSVD | no binding
70 | DRAGDSVD | no binding
71 | DRAGDSWA | no binding
72 | YRAGDSWD | no binding
73 | DRAGDSWD | no binding
74 | DRAGDYLV | no binding
75 | VRAGDYLV | no binding

Row | Variant | non-specific binding call
76 | ARAGDYLV | no binding
77 | SRAGDYLV | no binding
78 | FRAGDYLV | no binding
79 | DRAGDYLY | no binding
80 | ARAGGAAA | binds
81 | FRAGGAAA | binds
82 | YRAGGAAF | binds
83 | FRAGGAAV | binds
84 | FRAGGAGA | binds
85 | DRAGGAGD | no binding
86 | FRAGGAGV | binds
87 | YRAGGAGY | binds
88 | YRAGGALS | binds
89 | FRAGGALS | binds
90 | YRAGGASA | binds
91 | FRAGGAVD | binds
92 | FRAGGAVY | binds
93 | FRAGGAWS | binds
94 | FRAGGAWV | binds
95 | VRAGGAWV | binds
96 | FRAGGAWY | binds
97 | YRAGGAWY | binds
98 | VRAGGDAA | no binding
99 | YRAGGDAD | binds
100 | VRAGGDAV | no binding

Row | Variant | non-specific binding call
101 | VRAGGDLA | no binding
102 | YRAGGDSA | no binding
103 | VRAGGDSF | no binding
104 | VRAGGDVF | no binding
105 | VRAGGDWV | no binding
106 | YRAGGDWY | binds
107 | VRAGGFGA | binds
108 | YRAGGFGS | binds
109 | YRAGGFGY | binds
110 | YRAGGFVA | binds
111 | YRAGGFVV | binds
112 | FRAGGSAA | binds
113 | VRAGGSAD | binds
114 | FRAGGSGA | binds
115 | FRAGGSGD | binds
116 | VRAGGSGD | binds
117 | FRAGGSLF | binds
118 | FRAGGSLY | binds
119 | SRAGGSLY | binds
120 | FRAGGSSV | binds
121 | YRAGGSSY | binds
122 | VRAGGSVA | binds
123 | YRAGGSVA | binds
124 | FRAGGSVD | binds
125 | ARAGGSVV | no binding

Row | Variant | non-specific binding call
126 | YRAGGSWF | binds
127 | YRAGGVAV | binds
128 | YRAGGVGD | binds
129 | YRAGGVGF | binds
130 | YRAGGVGS | binds
131 | FRAGGVGV | binds
132 | YRAGGVVA | binds
133 | YRAGGYAA | binds
134 | YRAGGYGD | binds
135 | YRAGGYGF | binds
136 | YRAGGYGY | binds
137 | YRAGGYVA | binds
138 | YRAGGYVD | binds
139 | YRAGGYVF | binds
140 | YRAGGYWY | binds
141 | YRAGSAAA | binds
142 | YRAGSAAD | binds
143 | YRAGSASD | binds
144 | FRAGSAVV | binds
145 | ARAGSAWA | binds
146 | FRAGSAWS | binds
147 | ARAGSFWA | binds
148 | YRAGSSAD | binds
149 | YRAGSSGA | binds
150 | YRAGSSGD | binds

Row | Variant | non-specific binding call
151 | FRAGSSGV | binds
152 | YRAGSSGV | binds
153 | VRAGSSLD | no binding
154 | YRAGSSWD | binds
155 | VRAGSSWD | binds
156 | FRAGSSWD | binds
157 | YRAGTAAA | binds
158 | YRAGTAVD | binds
159 | YRAGTAVS | binds
160 | YRAGTSGD | binds
161 | YRAKDALA | no binding
162 | YRAKGAAA | binds
163 | YRAKGAAD | binds
164 | YRAKGAAV | binds
165 | YRAKGAGA | binds
166 | YRAKGAGD | binds
167 | YRAKGAGS | binds
168 | YRAKGAGV | binds
169 | VRAKGAGY | binds
170 | YRAKGALA | binds
171 | YRAKGALF | binds
172 | YRAKGALS | binds
173 | YRAKGAVV | binds
174 | YRAKGAWY | binds
175 | YRAKGSAA | binds

Row | Variant | non-specific binding call
176 | FRAKGSAD | binds
177 | VRAKGSAD | binds
178 | YRAKGSAD | binds
179 | YRAKGSAV | binds
180 | YRAKGSGD | binds
181 | YRAKGSGV | binds
182 | YRAKGSLA | binds
183 | YRAKGSLD | binds
184 | YRAKGSSS | binds
185 | YRAKGSVD | binds
186 | YRAKGSWD | binds
187 | YRAKGVGA | binds
188 | YRAKGYGA | binds
189 | YRAKSALV | binds
190 | YRAKSAVF | binds
191 | YRAKSSGV | binds
192 | YRAKSSSS | binds
193 | ARAKTSWV | binds
194 | YRARDDVF | no binding
195 | SRARDFGY | no binding
196 | SRARGAAA | binds
197 | VRARGAAD | no binding
198 | YRARGAAS | binds
199 | FRARGAAV | binds
200 | VRARGAAY | binds

Row | Variant | non-specific binding call
201 | YRARGAAY | binds
202 | FRARGAAY | binds
203 | FRARGAGA | binds
204 | YRARGAGA | binds
205 | SRARGAGA | binds
206 | YRARGAGF | binds
207 | VRARGAGF | binds
208 | YRARGAGS | binds
209 | FRARGAGS | binds
210 | FRARGAGV | binds
211 | YRARGAGV | binds
212 | YRARGAGY | binds
213 | YRARGALS | binds
214 | VRARGALV | binds
215 | YRARGALV | binds
216 | YRARGASA | binds
217 | YRARGAVA | binds
218 | YRARGAVS | binds
219 | YRARGAWD | binds
220 | VRARGAWF | binds
221 | YRARGAWF | binds
222 | YRARGAWS | binds
223 | YRARGAWV | binds
224 | YRARGAWY | binds
225 | YRARGDGV | no binding

Row | Variant | non-specific binding call
226 | VRARGDGY | no binding
227 | YRARGDLD | binds
228 | VRARGDVS | no binding
229 | YRARGFGA | binds
230 | YRARGFGV | binds
231 | VRARGFVV | binds
232 | YRARGSAA | binds
233 | YRARGSAD | binds
234 | YRARGSAV | binds
235 | ARARGSGA | binds
236 | FRARGSGA | binds
237 | YRARGSGV | binds
238 | YRARGSGY | binds
239 | YRARGSLA | binds
240 | YRARGSLF | binds
241 | VRARGSSF | binds
242 | YRARGSSS | binds
